Assay: yeast display, Sf9 membrane polyspecificity reagent, FACS + sequencing; frameworks hold sequencing errors
Outline: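 Galactose-induced (36–48 hours) yeast carrying a synthetic nanobody display library were exposed to 10% biotinylated, detergent-solubilized Sf9 membrane reagent at 4 °C for 1 hour. FACS followed streptavidin microbead enrichment, using low and high (top ~1%) gates for expression (anti-HA) and reagent binding (streptavidin). Colony PCR, MiSeq 2 × 250 sequencing and CDR-length filtering followed. Labels for polyreactivity reflect the gate of origin.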

| Sequence | polyreactivity (PSR sort gate) |
| --- | --- |
| QVQLVESGGGLVQAGGSLRLSCAASGSIFGYNAMGWYRQAPGKEREFVAAITSGGSTYYADSVKGRFTISRDNAKNTVYLQMNSLKPEDTAVYYCRRRNVYSTRRYDYWGQGTQVTVSS | high polyreactivity |
| QVQLVESGGGLVQAGGSLRLSCAASGSIFGYNAMGWYRQAPGKEREFVASIRYRGGSTYYADSVKGRFTISRDNAKNTVYLQMNSLKPEDTAVYYSAAYWWGVSKRQYGYWGQGTQVTVSS | high polyreactivity |
| QVQLVESGGGLVQAGGSLRLSCAASGSIFGYNAMGWYRQAPGKERELVATISSGGSTNYADSVKGRFTISRDNAKNTVYLQMNSLKPEDTAVYYCAKEYGSIIPYDYWGQGTQVTVSS | low polyreactivity |
| QVQLVESGGGLVQAGGSLRLSCAASGSIFGYNDMGCYRQAPGKEREMVAAITTSGDSTYYADSVKGRFTISRDNAKNTVYLQMNSLKPEDTAVYYCNADGEVVDWYHPYYVEYDYWGQGTQVTVSS | low polyreactivity |
| QVQLVESGGGLVQAGGSLRLSCAASGSIFGYNTMGWYRQAPGKERELVAAISYSGGRTYYADSVKGRFTISRDNAKNTVYVQMNSLKPEDTAVYYCAADFYFRRGTDYDYWGQGTQVTVSS | high polyreactivity |
| QVQLVESGGGLVQAGGSLRLSCAASGSIFGYYALGWYRQAPGKERELVAAISRSGGSTYYADSVKGRFTISRDNAKNTVYLQMNSLKPEDTAVYYCAADDYPYGNYYWGQGTQVTVSS | high polyreactivity |
| QVQLVESGGGLVQAGGSLRLSCAASGSIFGYYAMGGYIQAPGYERELVAAISYSGGSTYYADSVKGRFTISRDHAKNTVYLQMNSLKPEDTAVYYCAAVRRRTRYGYRYDYWGQGTQVTVSS | high polyreactivity |
| QVQLVESGGGLVQAGGSLRLSCAASGSIFGYYAMGWYRLAPGKERELVAAINWRGTSTYYADSVKGRFTISRDNAKNTVYLQMISLKPEDTAVYYCAARRSVGGYGYWGQGTQVTVSS | high polyreactivity |
| QVQLVESGGGLVQAGGSLRLSCAASGSIFGYYAMGWYRQAPGKERELVAAIRWSDGSTYYADSVKGRFTISRDNAKNTVYLQMNSLKPEDTAVYYCAAETGWLYDYWGQGTQVTVSS | high polyreactivity |
| QVQLVESGGGLVQAGGSLRLSCAASGSIFGYYAMGWYRQAPGKERELVAAISGSGGSTYYADSVKGRFTISRDYAKNTVYLQMNSLKPEDTAVYYCAARWQWLNGYYYWGQGTHVTVSS | high polyreactivity |
| QVQLVESGGGLVQAGGSLRLSCAASGSIFGYYAMGWYRQAPGKERELVAAISRGGRTNYADSVKGRFTISRDNAKNTVYLQMNSLKPEDTAVYYCAAESYRAYKYDYWGQGTQVTVSS | low polyreactivity |
| QVQLVESGGGLVQAGGSLRLSCAASGSIFGYYAMGWYRQAPGKERELVAAITRSGGRTYYADSVKGRFTISRDNAKNTVYLQMNSQKPEDTAVYYCATEWLKDRYPYGYWGQGTQVTVSS | high polyreactivity |
| QVQLVESGGGLVQAGGSLRLSCAASGSIFGYYAMGWYRQAPGKERELVAVITSGATTNYADSVKGRFTISRDNAKNTVYLQMNSLKPEDTAVYYCAARPQVKRGRYGYWGQGTQVTVSS | low polyreactivity |
| QVQLVESGGGLVQAGGSLRLSCAASGSIFGYYAMGWYRQARGNERELGAAIRSTGSTNYADSVKGRFTISRDNAQNTVYLQMNSLKPEDTAVYYCAAGDITGGSGNWVVTPYDYGGQGTQVTVSS | high polyreactivity |
| QVQLVESGGGLVQAGGSLRLSCAASGSIFGYYTMGWYRQAPGKERELVAAITSGGSTHYADSVKGRFTISRDNAKKTGYLQMNSLKPEDTAVYYCAKVSYYPWRYDYWGQGTQVTVSS | low polyreactivity |
| QVQLVESGGGLVQAGGSLRLSCAASGSIFGYYVMGWYRQAPGKERELVAAISRSGGSTYYADSVKGRFTISRDHAKNTVYLQMNSLKPEDTAVYYCAARGTAERDYWGQGTQVTVSS | high polyreactivity |
| QVQLVESGGGLVQAGGSLRLSCAASGSIFHDNAMGWYRQAPGKERELVAAITTSGGNTYYADSVKGRFTISRDNAKNTVYLQMNSLKPEDTAVYYCAADTLGKYDYWGQGTQVTVSS | low polyreactivity |
| QVQLVESGGGLVQAGGSLRLSCAASGSIFHGYAMRWYRQAPGKERELVAAISRNGGGTYYADSVKGRFTISRDNAKNTVYLQMNSLKPEDTAVYYCAVVRYSSRYDYWGQGTQVTVSS | high polyreactivity |
| QVQLVESGGGLVQAGGSLRLSCAASGSIFHIYAMGWYRQAPGKERELVAAISSGGRTNYADSVKGRFTISRDNAKNTVYLQMNSLKPEDTAVYYCAADWIYLPTRNYRVRVDYWGQGTQVTVSS | high polyreactivity |
| QVQLVESGGGLVQAGGSLRLSCAASGSIFHKNAMGWYRPAPGNERELVATITSDGSTNYADSVKGRFTISRDNEKNTVYLQMNSLKPEDTAVYDCAAYSQVGGYDYWGQGTQVTVSS | low polyreactivity |
| QVQLVESGGGLVQAGGSLRLSCAASGSIFHPYAMGWYRQAPGKEREFVAAITFRGSTYFADSVKGRFTISRDNAKITVYLQMNSLKPEDTAVYYCAARYHIFRRGSRNYDYWGQGTQVTVSS | high polyreactivity |

| Sequence | polyreactivity (PSR sort gate) |
| --- | --- |
| QVQLVESGGGLVQAGGSLRLSCAASGSIFHTYAMGWYRQAPGKERELVAAISGIGGSTYYADSVKGRFTISRDNAKNTVYLQMNSLKPEDTAVYYCAVELYWYPGYDYWGQGTQVTVSS | low polyreactivity |
| QVQLVESGGGLVQAGGSLRLSCAASGSIFHTYAMGWYRQAPGKERELVAAITVSGGDTYYADSVKGRFTISRDNAKNTGYLQMNSLKPEDTAVYYCAKRIFDTFDSWGQGTQVTVSS | low polyreactivity |
| QVQLVESGGGLVQAGGSLRLSCAASGSIFHTYTMGWYRQAPGKERELVAAITRSGGTTYYADSVKGRFTISRDNAKNTVYLQMNSLKPEDTAVYYCAATHPGAVSFRYYYWGQGTQVTVSS | high polyreactivity |
| QVQLVESGGGLVQAGGSLRLSCAASGSIFHYYAMGWYRQAPGKERELVADITSGGSTNYADSVKGRFTISRDNAKNTVYVQMNSLKQEDTAVYYCNASFQSWLVRVPGDYWGQGTQVTVSS | low polyreactivity |
| QVQLVESGGGLVQAGGSLRLSCAASGSIFHYYAMGWYRQATGKERELVAAISTSGGSTYYADSVKGRFTISRDNAKNTVYLQMNSLKPEDTAVYYCNAVYYYFPVGDDEYWGQGTQVTVSS | high polyreactivity |
| QVQLVESGGGLVQAGGSLRLSCAASGSIFIFNAMGWYRQAPGKEREFVARIRRDSSTNYADSVKGRFTISRDNAKNTVYLQMNSLKPEDTAVYYCAAKRFYRRVELNSWGQGTQVTVSS | low polyreactivity |
| QVQLVESGGGLVQAGGSLRLSCAASGSIFIGYAMGWYRQAHGKERELVAAITSGGSTYADSVKGRFTISRDNAKNPVYLQMNSLKPEDSAVYYCAARFFLVTLDYWGQGTQVTVSS | low polyreactivity |
| QVQLVESGGGLVQAGGSLRLSCAASGSIFIGYAMGWYRQSPGKERELVAAINDSGDRTYYADSVKGRFTISRDNAKNTVYLQMNSLKPEDTAVYYCAADLVSLDPEYDYWGQGTQVTVSS | low polyreactivity |
| QVQLVESGGGLVQAGGSLRLSCAASGSIFIQNGMGWYRQAPGKERELVASSASGGSTNYADSVKGRYTISRDNAKNTVYVQMNSLKPEDTAVYYCAARVWYSSDGSTYPYTRYDYWGQGTQVTVSS | high polyreactivity |
| QVQLVESGGGLVQAGGSLRLSCAASGSIFIRYAMGWSRQAPGTEREWVAAITSTGSTSYADSVNGRFTISRDNAKNTVYLQMNRLTPEDTAVYYCAKEASLVQGVIGGYPYDSWGQGTQVTVSS | low polyreactivity |
| QVQLVESGGGLVQAGGSLRLSCAASGSIFISSDRRLDRQAPGKERALVAAMRSRVGSTYYADSVKGRFTISRENGKNSDYFQMNSLKPEDTAVYYCKKDNAVDRRPWFQVTYVYWVQGTQVTVSS | low polyreactivity |
| QVQLVESGGGLVQAGGSLRLSCAASGSIFISYAMGWYRQAPGKERELVAAISSGGSTNYADSVKGRFTISRDNAKNTVYLQMNSLKPEATAVYYCAADGWLWSFTGDGWWFDYWGQGTQVTVSS | low polyreactivity |
| QVQLVESGGGLVQAGGSLRLSCAASGSIFISYDIGWYRHAPGKETELVAAIRSRVGSTYYADSVKGRFTISRDNAKNTVYLQMKSLKPEDTAVYYCNKDNAVDRLPWFQVTYEYWGQGTQVTVSS | low polyreactivity |
| QVQLVESGGGLVQAGGSLRLSCAASGSIFISYNMGWYGQAPGKERELVAANNYNGGRTNYADSVKGRFTISRDKAKNTVYLQINSLKPEDTAVYYCNAAYSYSIYDYWGQGTQVTVSS | low polyreactivity |
| QVQLVESGGGLVQAGGSLRLSCAASGSIFISYVMGWYRQAPAKERELVASISWSGGSTYYADSVKGRFTISRDNAKNTVYLQMNSLKPEDTAVYYCAADRLVRIRSYRDLGYWGQGTQVTVSS | high polyreactivity |
| QVQLVESGGGLVQAGGSLRLSCAASGSIFITNAMGWYRQAPGKERELVAAISGRGGSTYSADSVKGRFTISRDNAKNTVYLQMNSLKPEDTAVYYCNAYSYRVSGYDYWGQGTQVTVSS | high polyreactivity |
| QVQLVESGGGLVQAGGSLRLSCAASGSIFITYAMGWYRQAPGKERELVAAIRDSGDRTYYADSVKGRFTISRDNEKNTVYLQMNSLKPEDTAVYYCNARWQEPLKYDYWGQGTQVTVSS | low polyreactivity |
| QVQLVESGGGLVQAGGSLRLSCAASGSIFIVNAMGWYRQAPGKERELVATITSDVDTNYADSVKGRFTISRDNAKNTVYLQMNSLKPEDTAVYYCAKESTKIYRVVEMDYWGQGTQVTVSS | low polyreactivity |
| QVQLVESGGGLVQAGGSLRLSCAASGSIFIVYAMGWYRQAPGKERELVATISWSGGSTSYADSVKGRFTISRDNAKNTVYLQMNSLKPEDTAVYYCNTLVRITEYDSWGQGTQVTVSS | low polyreactivity |
| QVQLVESGGGLVQAGGSLRLSCAASGSIFIVYAMGWYRQAPGKERELVATISWSGGSTSYADSVKGRFTNSRDNAKNTVYLQMNSLKPEDTAFYYCNTLVRITEYDSWGQGTQVTVSS | low polyreactivity |

From the nanobody polyreactivity screen of Harvey et al. (2022)
